Assay results reported in publication PMC3159454 (Nucleic Acids Research, 2011).

Molecular target: the molecule itself
Test: SEC

B1: Elk-1 (recombinant, full length) (natural protein, UniProt P19419 1-428, looked up)
chain: MDPSVTLWQFLLQLLREQGNGHIISWTSRDGGEFKLVDAEEVARLWGLRKNKTNMNYDKLSRALRYYYDKNIIRKVSGQKFVYKFVSYPEVAGCSTEDCPPQPEVSVTSTMPNVAPAAIHAAPGDTVSGKPGTPKGAGMAGPGGLARSSRNEYMRSGLYSTFTIQSLQPQPPPHPRPAVVLPSAAPAGAAAPPSGSRSTSPSPLEACLEAEEAGLPLQVILTPPEAPNLKSEELNVEPGLGRALPPEVKVEGPKEELEVAGERGFVPETTKAEPEVPPQEGVPARLPAVVMDTAGQAGGHAASSPEISQPQKGRKPRDLELPLSPSLLGGPGPERTPGSGSGSGLQAPGPALTPSLLPTHTLTPVLLTPSSLPPSIHFWSTLSPIAPRSPAKLSFQFPSSGSAQVHIPSISVDGLSTPVVLSPGPQKP
stoichiometry N: 2
